Source: publication PMC7768483, “Gbx2 Is Required for the Migration and Survival of a Subpopulation of Trigeminal Cranial Neural Crest Cells”

Target: GBX2 (full-length) (mouse, UniProt P48031 1-348)
Test: EMSA; 720 nM GBX2, 940 pM probe; supershift with GBX2 antibody; 2X binding buffer: 20 mM Tris-HCl pH 7.4, 50 mM KCl, 1 mM DTT, 10% glycerol, 200 µg/mL BSA, 2.2 µg/mL poly dI/dC; 30 min at 25 °C; 6% native PAGE, Tris-glycine
Settings: protein: recombinant; label: 32P end label (probe); blunt

GBX2 (full-length), sequence (P48031 whole entry): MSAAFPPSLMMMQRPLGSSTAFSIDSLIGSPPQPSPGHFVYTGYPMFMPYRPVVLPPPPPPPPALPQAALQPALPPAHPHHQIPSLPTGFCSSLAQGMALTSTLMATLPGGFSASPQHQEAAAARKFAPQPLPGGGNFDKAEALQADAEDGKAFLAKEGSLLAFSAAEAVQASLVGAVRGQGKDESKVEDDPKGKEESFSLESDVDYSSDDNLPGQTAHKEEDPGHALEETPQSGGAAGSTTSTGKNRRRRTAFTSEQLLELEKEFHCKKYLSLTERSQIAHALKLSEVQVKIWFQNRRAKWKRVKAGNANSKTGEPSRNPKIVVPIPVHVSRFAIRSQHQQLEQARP

B1: NRP1 oligonucleotide (dsDNA)
DNA 1: AACATTCCAAAAATTATCAACCATTTCAGGAATACATTTCATAAAAGCTAGATTGAGTTCTGCTTGTTTTTTATT
DNA 2: AATAAAAAACAAGCAGAACTCAATCTAGCTTTTATGAAATGTATTCCTGAAATGGTTGATAATTTTTGGAATGTT
  binding result: binds
